From IntAct's records for PubMed 21784248

B1: Nucleoporin NIC96 (Chaetomium thermophilum (strain DSM 1495 / CBS 144.50 / IMI 039719)), G0S024 (parent)
chain: MSLIGNGPSVPPSSTKASLFSSPTTSANPTGGLFGSTTGGSSLFAPKTAGSTTTSTTQPTSTTGLGTSLFGTSTTANTQNTANAARPSLFTAGNSIFGTSTTQPGLGASSLTTAATSNQQAQQQQQQRQQHQQAAPTGALFDSLLARNKKQAEGETALGELPSLQLGLADLRQRLRKLGPSSDRPIEPGKAHYFLAASGVDPGAAVRDLGALGLQAKTERTAASVGPAAGPSGVSTTGFGTGLGEVDVDTYLSNLQTKTTLSMIADGLERSARDFDAFLEENVTLEWEAQRKRIYQHFGIKPRDSSVAGTTTAQPTATPSKDGQGTFGRSRRKASQPPPGERPAQRMSILGRSTMMRSVIGTPTRIGAHAPEFSDVEARKDSSGAAVASVDDRFLREKQAKLAEKIREFNDARQRGTPFYICRDLADLESKSGDRHGPHIVEAYRAVMEMVGEHPDAGEAPRERQFAKMYLDPNTQSANALAMRKQILKGATTFLEKQFWNEVNSLIAKYPQDANLGGLPDVVSKIKAYIRLRIARKTLVPDNVELQQINGEYVWAIVFYLLRAGFVTEAAQYVNSNQAHFRAIDRTFSGYINSYASSEERRLKRQMQDRCMSEYNQRIRNAPEGSIDPFRMACYKIIGRCDLSNRSLDGLQTDVNDWIWLQFNLARETDRSLELAGESYGLAELQASIREIGLKHFPKTAAEDTNGSFGMFFYLQILAGMFEQAIAYLYPFSYVDAVHFAIALTYYGLLRPVDAASAGNELLSHNTRSMPQINFGRMLGYYTRDFRAANPAAAVDYLVLICLNADEAAGGQQAQAALCHEALRELVLESREFSRLIGDIRPDGRRIRGVIEERGPLIALGQEDDFIRTITLQAASFADDNGRTTDAVLLYHLAEDYDTVVSIVSRALSEAISLEIGEDPMRLIPVKPRVTNAEGQVEEAAPGSSLSLAAIDDPVELAKAMMGMYERDHMFWQKIREPNRVACSVLLQMADIKSLVEQGRWAECLDKIRALDILPLTARGDPGTIRSYAARFPSLAQPVAINVPNLLMWTVLCCMRQRERLAGGQFAGNESTARLMMDELKQMTVDLMAYTSQLRYRLPPHLHEALARASAD

Variants of: B1
Conditions: with nu192_chatd NUP192, G0S4T0
nu192_chatd NUP192, G0S4T0, sequence (G0S4T0 whole entry): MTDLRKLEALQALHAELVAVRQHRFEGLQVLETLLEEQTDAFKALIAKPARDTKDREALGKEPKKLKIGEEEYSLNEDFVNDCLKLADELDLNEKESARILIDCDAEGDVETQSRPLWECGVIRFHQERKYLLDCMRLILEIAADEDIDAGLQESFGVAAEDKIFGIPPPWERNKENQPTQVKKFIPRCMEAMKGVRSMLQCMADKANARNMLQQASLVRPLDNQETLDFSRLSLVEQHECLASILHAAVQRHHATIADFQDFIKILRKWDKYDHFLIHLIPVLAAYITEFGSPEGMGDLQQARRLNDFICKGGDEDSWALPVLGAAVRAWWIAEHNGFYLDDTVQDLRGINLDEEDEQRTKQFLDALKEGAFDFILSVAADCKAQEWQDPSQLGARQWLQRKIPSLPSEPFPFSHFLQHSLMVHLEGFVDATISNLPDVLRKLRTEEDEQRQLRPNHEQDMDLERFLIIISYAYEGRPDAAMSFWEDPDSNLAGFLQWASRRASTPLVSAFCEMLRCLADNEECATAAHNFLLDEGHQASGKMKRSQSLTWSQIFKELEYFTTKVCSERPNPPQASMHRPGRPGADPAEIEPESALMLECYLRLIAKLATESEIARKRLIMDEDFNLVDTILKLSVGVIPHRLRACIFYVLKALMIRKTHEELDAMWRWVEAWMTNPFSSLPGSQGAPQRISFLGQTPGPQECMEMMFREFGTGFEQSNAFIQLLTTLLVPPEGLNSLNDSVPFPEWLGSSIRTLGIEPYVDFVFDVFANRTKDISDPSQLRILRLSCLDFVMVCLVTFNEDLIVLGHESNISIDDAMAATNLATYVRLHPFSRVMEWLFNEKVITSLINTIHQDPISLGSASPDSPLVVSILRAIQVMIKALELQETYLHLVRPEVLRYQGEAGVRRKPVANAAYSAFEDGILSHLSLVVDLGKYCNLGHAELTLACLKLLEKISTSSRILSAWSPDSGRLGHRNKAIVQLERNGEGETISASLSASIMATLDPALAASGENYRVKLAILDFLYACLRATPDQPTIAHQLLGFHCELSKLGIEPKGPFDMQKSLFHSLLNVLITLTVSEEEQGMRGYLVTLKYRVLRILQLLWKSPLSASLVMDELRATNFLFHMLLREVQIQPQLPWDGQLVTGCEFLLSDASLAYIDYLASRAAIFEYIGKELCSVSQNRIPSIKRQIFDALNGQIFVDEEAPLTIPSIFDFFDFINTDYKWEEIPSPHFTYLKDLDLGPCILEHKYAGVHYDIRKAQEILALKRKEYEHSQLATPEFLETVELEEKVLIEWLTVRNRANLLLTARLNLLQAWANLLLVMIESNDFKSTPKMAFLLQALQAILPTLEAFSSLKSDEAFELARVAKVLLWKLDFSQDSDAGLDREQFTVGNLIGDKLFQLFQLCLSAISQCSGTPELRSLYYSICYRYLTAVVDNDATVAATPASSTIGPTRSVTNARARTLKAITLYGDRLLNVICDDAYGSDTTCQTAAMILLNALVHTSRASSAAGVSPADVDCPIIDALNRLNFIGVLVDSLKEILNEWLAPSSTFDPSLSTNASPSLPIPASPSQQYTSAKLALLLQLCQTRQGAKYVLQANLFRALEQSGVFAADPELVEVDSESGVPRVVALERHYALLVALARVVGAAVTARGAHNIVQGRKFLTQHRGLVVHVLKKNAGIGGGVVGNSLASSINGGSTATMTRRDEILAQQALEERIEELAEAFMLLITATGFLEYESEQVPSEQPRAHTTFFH
Y251A;I264A;F275A;W287A was tested, and the “effect of a mutation on the interaction” value was “decreasing interaction”.
